Experimental findings from patent publication US20250352661A1 (MYTHIC THERAPEUTICS, published 2025) are described below.

Test [1] deals with T1, Human LRRC15 Protein, His Tag (Acro Biosystems) (human, UniProt Q8TF66 22-538, limits assumed).
T1 construct: Bought protein with His tag
T1 sequence (looked up): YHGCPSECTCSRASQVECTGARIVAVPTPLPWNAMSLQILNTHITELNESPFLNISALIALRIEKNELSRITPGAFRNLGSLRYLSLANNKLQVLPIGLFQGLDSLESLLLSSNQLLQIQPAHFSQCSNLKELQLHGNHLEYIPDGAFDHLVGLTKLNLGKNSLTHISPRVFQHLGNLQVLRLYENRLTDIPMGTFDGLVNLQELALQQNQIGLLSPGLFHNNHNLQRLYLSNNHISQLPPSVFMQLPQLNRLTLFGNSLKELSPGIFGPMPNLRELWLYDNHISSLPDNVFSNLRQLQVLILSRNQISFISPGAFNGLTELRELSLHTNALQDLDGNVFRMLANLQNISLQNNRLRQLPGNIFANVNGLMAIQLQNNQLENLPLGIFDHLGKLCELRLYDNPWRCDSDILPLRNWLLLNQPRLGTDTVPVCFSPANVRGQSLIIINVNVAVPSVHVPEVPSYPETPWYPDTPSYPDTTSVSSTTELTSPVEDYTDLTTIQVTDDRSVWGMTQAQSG
As to the kind of experiment: BLI; dissociation pH 7.4 black, pH 5.4 grey [D00008 FIG. 1F]. The source says: For each individual plot, antigen binding proteins were captured on anti-human Fc biosensors and associated with LRRC15 at pH 7.4. Dissociation was at pH 7.4 (black) or pH 5.4 (grey). Major X-axis ticks=100 seconds, with left dashed vertical line=0 seconds. Major Y-axis ticks=0.5 nm and octet plots are shown MYT5712 and MYT6080-MYT6121.
Multiple LRRC15-binding monoclonal antibodies have been described in the literature and can be used as a template for engineering pH-dependent binding. We selected discovery RabMAb clone 15G7 (rabbit VH SEQ ID NO: 378, rabbit VL SEQ ID NO: 451; humanized VH SEQ ID NO: 382, humanized VL SEQ ID NO: 455) as a LRRC15-binding monoclonal antibody for pH-engineering via histidine scanning. […] To generate pH-dependent sequence variants, individual amino acid residues within the heavy chain CDRs were systematically substituted with a histidine (or alanine if H was already present in a given position; e.g., MYT6099), one at a time (rabbit, MYT6080-6121). Desirable mutations were transferred to a humanized framework (humanized, MYT 8387-8411). After allowing for four days of protein expression, cell culture supernatants were collected, quantified by SDS-PAGE analysis, and the pH dependence of the variant was evaluated using biolayer interferometry (BLI) on an Octet RED 96e instrument. Briefly, cell culture supernatants were diluted based on qualitative expression level of the variant determined by visual examination of SDS-PAGE gels, 5 μL of cell culture supernatant was diluted into 195 μL of 1×PBST, pH 7.4 for high expressors, 25 μL of cell culture supernatant was diluted into 175 μL of 1×PBST, pH 7.4 for medium expressors and 100 μL of cell culture supernatant was diluted into 100 μL of 1×PBST, pH 7.4 for low expressors for loading onto the sensor tips.
(Biolayer interferometry detects binding as a change in optical thickness at a sensor tip.)

Test [2] has as its target T2, Human LRRC15 Protein, His Tag (Acro Biosystems) (human, UniProt Q8TF66 22-538, limits assumed).
T2 construct: not shown: His tag
T2 sequence (looked up): T1 sequence (looked up)
In words: BLI; dissociation pH 7.4 black, pH 5.4 grey [D00016 FIG. 3B].

Positions count from the first letter of the chain named. Numbers in names are those of the source.

B1: MYT6122 (antibody, V domains shown)
VH: QEQLEESGGDLVKPGASLTLTCTASGLDFRRTNYICWVRQAPGKGLEWIGCIYIADVVHYYASWAKGRFTFSKTSSTTVTLQMTSLTAADTATYFCARGADGGFVYGMDLWGPGTLVTVSS
VL: DVVMTQTPASVSEPVGGTVTIKCHASQSIGNYLSWYQQKPGQRPKRLIYSASTLPSGVPSRFKGAGSGTEFTLTISDLESADAATYYCQNNYWLAGYGHPFGGGTEVVVK
notes: rabbit 15G7 VL Q24H; chimeric, human constant regions
As for B1, the binding result in test [1] was “binds”.

B2: MYT6138 (antibody, V domains shown)
VH: B1 VH
VL: B1 VL with H24Q, P55H
notes: rabbit 15G7 VL P55H; chimeric, human constant regions
On to B2, for which the binding result in test [1] is reported as “binds”.

B3: MYT6140 (antibody, V domains shown)
VH: B1 VH
VL: B1 VL with H24Q, Q89H
notes: rabbit 15G7 VL Q89H; chimeric, human constant regions
For B3, in test [1], the binding result is “binds”.

B4: MYT6123 (antibody, V domains shown)
VH: B1 VH
VL: B1 VL with H24Q, A25H
notes: rabbit 15G7 VL A25H; chimeric, human constant regions
B4: the binding result in test [1] was “binds”.

B5: MYT6129 (antibody, V domains shown)
VH: B1 VH
VL: B1 VL with H24Q, N31H
notes: rabbit 15G7 VL N31H; chimeric, human constant regions
Regarding B5, the binding result in test [1] is reported as “binds”.

B6: MYT6130 (antibody, V domains shown)
VH: B1 VH
VL: B1 VL with H24Q, Y32H
notes: rabbit 15G7 VL Y32H; chimeric, human constant regions
As to B6, the binding result in test [1] was “binds”.

B7: MYT6127 (antibody, V domains shown)
VH: B1 VH
VL: B1 VL with H24Q, I29H
notes: rabbit 15G7 VL I29H; chimeric, human constant regions
Regarding B7, the binding result in test [1] was “binds”.

B8: MYT6137 (antibody, V domains shown)
VH: B1 VH
VL: B1 VL with H24Q, L54H
notes: rabbit 15G7 VL L54H; chimeric, human constant regions
Take B8: the binding result in test [1] was “binds”.

B9: MYT6134 (antibody, V domains shown)
VH: B1 VH
VL: B1 VL with H24Q, A51H
notes: rabbit 15G7 VL A51H; chimeric, human constant regions
B9: the binding result in test [1] is listed as “binds”.

B10: MYT6132 (antibody, V domains shown)
VH: B1 VH
VL: B1 VL with H24Q, S34H
notes: rabbit 15G7 VL S34H; chimeric, human constant regions
On to B10, for which, in test [1], the binding result is listed as “binds”.

B11: MYT6141 (antibody, V domains shown)
VH: B1 VH
VL: B1 VL with H24Q, N90H
notes: rabbit 15G7 VL N90H; chimeric, human constant regions
In the case of B11, the binding result in test [1] is “no binding (tested: 50 nM LRRC15)”.

B12: MYT6124 (antibody, V domains shown)
VH: B1 VH
VL: B1 VL with H24Q, S26H
notes: rabbit 15G7 VL S26H; chimeric, human constant regions
Regarding B12, the binding result in test [1] is listed as “binds”.

B13: MYT6142 (antibody, V domains shown)
VH: B1 VH
VL: B1 VL with H24Q, N91H
notes: rabbit 15G7 VL N91H; chimeric, human constant regions
Consider B13, for which the binding result in test [1] is listed as “binds”.

B14: MYT6139 (antibody, V domains shown)
VH: B1 VH
VL: B1 VL with H24Q, S56H
notes: rabbit 15G7 VL S56H; chimeric, human constant regions
B14: the binding result in test [1] is “binds”.

B15: MYT6135 (antibody, V domains shown)
VH: B1 VH
VL: B1 VL with H24Q, S52H
notes: rabbit 15G7 VL S52H; chimeric, human constant regions
Turning to B15, the binding result in test [1] is reported as “binds”.

B16: MYT6126 (antibody, V domains shown)
VH: B1 VH
VL: B1 VL with H24Q, S28H
notes: rabbit 15G7 VL S28H; chimeric, human constant regions
Consider B16, for which the binding result in test [1] is listed as “binds”.

B17: MYT6133 (antibody, V domains shown)
VH: B1 VH
VL: B1 VL with H24Q, S50H
notes: rabbit 15G7 VL S50H; chimeric, human constant regions
Regarding B17, the binding result in test [1] is on record as “binds”.

B18: MYT6131 (antibody, V domains shown)
VH: B1 VH
VL: B1 VL with H24Q, L33H
notes: rabbit 15G7 VL L33H; chimeric, human constant regions
Consider B18, for which the binding result in test [1] was “binds”.

B19: MYT6136 (antibody, V domains shown)
VH: B1 VH
VL: B1 VL with H24Q, T53H
notes: rabbit 15G7 VL T53H; chimeric, human constant regions
Consider B19, for which the binding result in test [1] is “binds”.

B20: MYT6125 (antibody, V domains shown)
VH: B1 VH
VL: B1 VL with H24Q, Q27H
notes: rabbit 15G7 VL Q27H; chimeric, human constant regions
Take B20: the binding result in test [1] was “binds”.

B21: MYT6128 (antibody, V domains shown)
VH: B1 VH
VL: B1 VL with H24Q, G30H
notes: rabbit 15G7 VL G30H; chimeric, human constant regions
As to B21, in test [1], the binding result is on record as “binds”.

B22: MYT7947 (antibody, V domains shown)
VH: QQQLVESGGGLVKPGASLTLTCKASGFSFSGSYWICWVRQAPGKGLEWIGCINGGSLDITYYASWAKGRFTISKASSTTVTLQKTSLTAADTATYFCASDTSYTAYGNFYFNLWGPGTLVTVSS
VL: AQVLTQTASPVSAAVGGTVTINCQSSQSVLNNNWLAWYQQKPGQPPKLLIYDASSLASGVPSRFKGSGSGTQFTLTISDLESDDAATYYCQHEFSCGSADCNAFGGGTEVVVKG
notes: tested as culture supernatant; also called 24D9 VL G92H
Consider B22, for which, in test [2], the binding result is given as “no binding (tested: 50 nM LRRC15)”.

B23: MYT7949 (antibody, V domains shown)
VH: B22 VH
VL: B22 VL with H92G, F94H
notes: tested as culture supernatant; also called 24D9 VL F94H
For B23, the binding result in test [2] is reported as “binds”.

B24: MYT7954 (antibody, V domains shown)
VH: B22 VH
VL: B22 VL with H92G, A99H
notes: also called 24D9 VL A99H
On to B24, for which the binding result in test [2] is given as “binds”.

B25: MYT7950 (antibody, V domains shown)
VH: B22 VH
VL: B22 VL with H92G, S95H
notes: tested as culture supernatant; also called 24D9 VL S95H
B25: in test [2], the binding result was “no binding (tested: 50 nM LRRC15)”.

B26: MYT7953 (antibody, V domains shown)
VH: B22 VH
VL: B22 VL with H92G, S98H
notes: tested as culture supernatant; also called 24D9 VL S98H
Regarding B26, the binding result in test [2] is “binds”.

B27: MYT7948 (antibody, V domains shown)
VH: B22 VH
VL: B22 VL with H92G, E93H
notes: tested as culture supernatant; also called 24D9 VL E93H
Turning to B27, the binding result in test [2] is reported as “no binding (tested: 50 nM LRRC15)”.

B28: MYT7958 (antibody, V domains shown)
VH: B22 VH
VL: B22 VL with H92G, A103H
notes: tested as culture supernatant; also called 24D9 VL A103H
Turning to B28, in test [2], the binding result is reported as “no binding (tested: 50 nM LRRC15)”.

B29: MYT7957 (antibody, V domains shown)
VH: B22 VH
VL: B22 VL with H92G, N102H
notes: tested as culture supernatant; also called 24D9 VL N102H
B29: in test [2], the binding result is listed as “no binding (tested: 50 nM LRRC15)”.

B30: MYT7952 (antibody, V domains shown)
VH: B22 VH
VL: B22 VL with H92G, G97H
notes: tested as culture supernatant; also called 24D9 VL G97H
As for B30, in test [2], the binding result was “binds”.

B31: MYT7951 (antibody, V domains shown)
VH: B22 VH
VL: B22 VL with H92G, C96H
notes: tested as culture supernatant; also called 24D9 VL C96H
Regarding B31, the binding result in test [2] was “no binding (tested: 50 nM LRRC15)”.

B32: MYT7955 (antibody, V domains shown)
VH: B22 VH
VL: B22 VL with H92G, D100H
notes: tested as culture supernatant; also called 24D9 VL D100H
Take B32: in test [2], the binding result was “no binding (tested: 50 nM LRRC15)”.
